Test results published in the DeepSol protein solubility set.

assay: soluble on expression in E. coli; label from the status in PepcDB or PDB records

Soluble on expression in E. coli, soluble:
MAHHHHHHMESPQVAELNEDIVELNKLLAQAVRENVKEKIKKCIENTTVEIAKLKLEESQTPNKITEKNTPLNDSNISYNSVQSFAWNQEGNKVTVFLTVKDIHTIDKEKISAEFNERNFEVKMHQVNKKNYRFCVKKLHEKIVPGKCSFKVKKDALHVYLIKQDQKYWDNLHFKESPMSKIRAPKMDEQAEPSTMLMNMMKQLYQEGDSDMKRTIAKAWCEANEKKSDFSVPNF
SMCEKVISVGQTVITKHRNTRYYSCRVMAVTSQTFYEVMFDDGSFSRDTFPEDIVSRDCLKLGPPAEGEVVQVKWPDGKLYGAKYFGSNIAHMYQVEFEDGSQIAMKREDIYTLDEELPKRVK
MSLTIYLMRHGQTYFNLWHKIQGWTDSPLTEEVIKQAKEIGRYFRENNINFDKGYSSTSERASDTLELATDHQLPYRRLKGLKEEYFGSFEAEDERLNPPVPYEDFFVKYGGESEDQVKMRMHDTMLKIARENADNSNILIVSHAGAIFNFLSTINMSIDQLFKIGFTNASVAKIEFKNDQFKVVEIINKKNNKFEVTQVNEGHHHHHH
GMIRVMATGVFDILHLGHIHYLKESKKLGDELVVVVARDSTARNNGKIPIFDENSRLALISELKVVDRAILGHEGDMMKTVIEVKPDIITLGYDQKFDEAELQSKINKLGITVKIVRISKYDGQLNSSSSVRKKIMELIGERY
MSYNYLKAARKIICIGRNYAAHIKELNNSTPKQPFFFLKPTSSIVTPLSSSLVKTTRPANSTFNGLNEDGTNPGPIFIPRGVKVHHEIELALIVSKHLSNVTKMKPEEVYDSISGVALALDLTARNVQDEAKKKGLPWTISKGFDTFMPISAIVSREKFSSYKSNLQDIFRVKCSVNGQLRQDGGTNLMLHPLHKILQHISTMISLEPGDIILTGTPAGVGELKPGDRVHCELLQNNDNIVDMNFECENRPGPYEFRET
MELETEIIVDKVDVENPILITSFPGIGLVGTIATAHYIMELKLESIGIVDSRLLPPVASLYEGVILPPVRVYQSADLGFVLIHSDVPIIPQAAIDMSKKIVQFAAEINARRVYSFAGVATFEDKKRVFAAATSKELLEEVKDHAEIFKTGTISGIAGSIMNECVAAKMPGIVLLGETLGFNPDPRAAASLIEAVNKIMNWNVSVEKLLKEAEMIEAQMQKLAEQARMQEERKEEFPMYG

Soluble on expression in E. coli, not soluble:
MSEAVKLDVGGTIFKTSKSTLTKFDGFFRTMLGSGIGLNVDESGCIFIDRSPKHFDLILNFMRDGCLALPKNERDLTELMAEAQYYLLDGLIDRLASSNWSVESDEKTINVAKRLPILENNSQFLQVLCNQEKPILLIVVMASRDHFFPNMSIPDGFNAYKFVEKYSHQFHIYFMSTFVAQFLTIRVKRNNKIVYLKRAAYVSSGQQE
MGSDKIHHHHHHMNRELILKALIDWNFWYKNQFVGIEREYSDQLLDLLEKGLAISVIGVKRSGKSTIINQVVKKLIEKKGEDPFDTLIVNFEDSRFGDIRTANDLFSLYELYKELRKKKKDSKPYIFLDEVQKIKGWEGFVRSIVDRKEANIVISGSTASVNNKSVREVLAGRHLILEVFPLSFKEFLEFKNIRLETELDMIAKESEIKVLFSEYLSYGGFPLVVSNERDKEKILLQLYEDIIFKDVISECNIRNEEEAKNLAIFYISNVGNKIRFRKISRSLNIPFRNVQRYTECMKNAYLIFFVKALSPKLSEMAKYDKKVYCIDNGISNVLGYRLNQNIGSLFENLIFLELLRRYGINNVFYYRGRRGEVDFVVKVKDEIREIYQVTYQLSDVERELKGIEEFLKIRKTKAYIITFDDEGEIKVGDDLVKVVKGWKWLLLE
MPKIQNIVTVSSQEYRDAMSHFAGAVHIVTTNGIKGKRGVTISACCSLSDDPPTLLVCLMRHNLKNHLFIENGNFCVNSLAGKHRSLADIFSRRYNYTETECFDRAQWGTLQTGAPSLSDALASFDCRLICWHEHATHYILIGEVIAINRNQEKDALIYLNRGYHTLPL
LNNLEELKRDIIEQFKEKNALDEGIVVMASGGKDSSTAIALAKDLGLNIEYLIHFYHRWSWDVSKKMVEKLSKKFDIPVIFYNITDELLKRTKGAKGSSICRICKNIMKDKAVDISKEKGIRIIMTGDSALEKVSGAVMNYLRDVYGEVVYNKMELTPVPQKYSKGKDKEVLFFRPLIRLACEDVLKLMDYYNIEIERAHE
MSLNDTFVVVDLETTGHSVKKGGRIIQIGMTFIKKRQIVDHFESFVNPGQLIDRQIQQLTHISQKDVQNAPYFEEIAPLLQNLLQNTVIIAHNVNFDYPYLNDEFERTGFPLLKSAAIDTVQLAQIMFPTAPGYRLLDLTTYLNITLKNAHRANADAHATALLFLKFWKKLEELPDITLKQLQQGDWPLLRQTQQFLKLVHSKNEGHHHHHH
MAAAPPSADPLDKALIVDVDQWIEQLYECKPLSENQVKTLCEKAKEILEKEPNVQEVRCPVTVCGDVHGQFHDLMELFKMGGKSPDTNYLFMGDYVDRGYYSVETVSLLVCLKIRYKDRVTLLRGNHESRQITQVYGFYDECLRKYGNSNVWKYFTDLFDCFPLTALVDGQIFCLHGGLSPSIDTLDHIRALDRIQEVPHEGPMCDLLWSDPDDRGGWGISPRGAGYTFGQDISETFNHSNGLTLISRAHQLVMEGYNWSHDRNVVTVFSAPNYCYRCGNQAAMVELDDDLKYSFLQFDPAPRRGEPHVTRRTPDYFL
MSLTPTELNLKAKALLETHFDDIVLSGEISKITLHGSGHWYFDLKDERSSIACAMFKGANLKVGFKPAVGDFLELCGSVSLYPESGRYQFIATSMKKAGFGDLEAQFLALKERLQKEGLFDPRFKKSLPKFPKKVGIITSKTSAALQDMLKLIHQKEYFLAKIYIFDALTQGNNAPFSLIQALKKADDMDLDVLIIARGGGSREDLFCFNDENLAREIFKAKTPIISAIGHEIDYVISDFVADFRAPTPSAAIDTLFYSKLDIEQSLDLMEEKLMQLWNYKIQNYENLLLNLSKFFKFNSLPKIIDEKIKQSHNIEKQLNHLLANQMRYNELKLDKLQNAYLQHENFFNKSKKFICIRKNGKIANLEDLKSDDIVILSSQTSQKEAKILEGHHHHHH
MGSDKIHHHHHHMKFYNRENELAELQRIQELSFEENSRLTVVTGRRRIGKTSLIMRAFEKTPTIYLFVGRKNEASLCREFITLVSQALDIYVPEEISTFKSLFRYIMEVATRQSFNLVIDEFQEFYNINKSIYSDIQDIWDQYRQKTHMNFVVSGSIYSLMEKIFHNEKEPLFGRADNIIKLSAFSLNVLKKIIKDYHPQYTNDDLLALYSFSGGVPKYVELFCDNRVLTVDGMIDFMVRDNSPFTDEGKNLLIEEFGKNYGTYFSILSAISGGYNTQTEIEALLGEKSLGGYLKRLIEDYNIVVRQRPVFSKEGSQTVRYGICDNFIHFWFNYFDRNRSLIEIKNFIGLRKLIKADYPTYSGKILEQYFKQKYAESYEFRLIGSWWEPKGNQNEIDIVAIYLDNKSAIVAEVKRQKKNFKPELFQKKVEHLENKVLAKYQINTVCLSLEDM
MGSSHHHHHHGKTIFVIVPTNEEQVAFLEALAKQDELNFDWQNPPTEPGQPVVILIPSDMVEWFLEMLKAKGIPFTVYVEEGGSENLYFQGGGGGGDRMRQGWLRSSAALLERVHGHLKDQDRIFTNLYNDFGTGIDAAERRGDWYRTKDILLKGHDWVINEIKASGLRGRGGAGFPSGLKWSFMPKKKQDDRPSYIVVNCDESEPGTCKDREIMRHEPHKVVEGALLAGFAMRARYGYIYIRGEFYNEWRSVEKAIHEAYEKGYLGKNACGSGWDFDLYTYRGAGAYICGEETAMIASIEGGQGKPRLKPPFPANVGLYGCPTTVTNCETVAVSPTIIRRGPQWFAQFGRKGNAGTKLFCISGHVNRPCTVEEEMSMPLRELLERHAGGVRGGWDNLLCVIPGGSSCPLIPKHICDDILMDYDALKEAQTGLGTAAVIVMDKSTDVINAIERLSQFYMHESCGQCTPCREGSPWLDKMMKRFVNGNAKKEEIYTLWDVSKQMEGRSICALGTAAAWPVQGLIRHFKPLMEERIERFWEANPHWGQPGSPWRRWKTHRYYTMQKGDRLNWDGKIVRNWN
MSLIVRRYLKQDLCAVARLEVRSFEIGPYDKEYLREVLENASSISYIAQISDKIVGYIVAMPLNSQEIDIESIATDPDFRKRSIGTRLIARIENESKSLGYRNIILEVRKENIEAISFYSRLGFNIKEFIVNYYEEYYRGSRDAYRMVKSLSEGHHHHHH
